Experimental data taken from patent US20200199241A1 (Chugai, published 2020).
Substitutions are numbered along the chain they refer to. In names and notes the source's numbering stands.

T1: human FcγRIIb (human, UniProt P31994 43-217, limits assumed)
T1 construct: also called FcgRIIb; hFcgRIIb
T1 sequence: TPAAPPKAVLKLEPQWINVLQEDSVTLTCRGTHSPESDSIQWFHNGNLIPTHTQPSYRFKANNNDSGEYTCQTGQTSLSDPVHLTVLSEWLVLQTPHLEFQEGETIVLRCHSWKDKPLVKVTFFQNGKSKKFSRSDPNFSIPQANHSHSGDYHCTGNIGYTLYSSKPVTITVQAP

T2: human FcγRIIa(H) (human, UniProt P12318 36-217)
T2 construct: also called FcgRIIaH; hFcgRIIa(H)
T2 sequence: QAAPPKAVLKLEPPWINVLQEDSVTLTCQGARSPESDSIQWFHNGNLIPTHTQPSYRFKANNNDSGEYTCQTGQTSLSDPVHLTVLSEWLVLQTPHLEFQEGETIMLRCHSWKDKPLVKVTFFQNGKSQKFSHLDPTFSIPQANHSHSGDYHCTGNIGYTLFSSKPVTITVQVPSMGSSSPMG

T3: human FcγRIIa(R) (human, UniProt P12318 36-217)
T3 construct: also called FcgRIIaR; hFcgRIIa(R)
T3 chain: T2 sequence with H133R

T4: human FcγRIIb (human, UniProt P31994 43-217, limits assumed)
T4 construct: also called FcgRIIb
T4 sequence: T1 sequence

T5: human FcγRIIa(H) (human, UniProt P12318 36-217)
T5 construct: also called FcgRIIaH; FcγRIIa type H
T5 sequence: T2 sequence

T6: human FcγRIIa(R) (human, UniProt P12318 36-217)
T6 construct: also called FcgRIIaR; FcγRIIa type R
T6 chain: T2 sequence with H133R

B1: GpH7-B3 A327T/GpL16-k0 (antibody, human IgG1)
heavy: not shown
light: DIVMTQSPLSLPVTPGEPASISCQASESLVHSNRNTYLHWYLQKPGQSPQLLIYKVSNRFSGVPDRFSGSGSGTDFTLKISRVEAEDVGVYYCSQNTHVPPTFGQGTKVEIE
notes: B3 variant; copies: 2 + 2
B2: GpH7-B3 A327H/GpL16-k0 (antibody, human IgG1)
heavy: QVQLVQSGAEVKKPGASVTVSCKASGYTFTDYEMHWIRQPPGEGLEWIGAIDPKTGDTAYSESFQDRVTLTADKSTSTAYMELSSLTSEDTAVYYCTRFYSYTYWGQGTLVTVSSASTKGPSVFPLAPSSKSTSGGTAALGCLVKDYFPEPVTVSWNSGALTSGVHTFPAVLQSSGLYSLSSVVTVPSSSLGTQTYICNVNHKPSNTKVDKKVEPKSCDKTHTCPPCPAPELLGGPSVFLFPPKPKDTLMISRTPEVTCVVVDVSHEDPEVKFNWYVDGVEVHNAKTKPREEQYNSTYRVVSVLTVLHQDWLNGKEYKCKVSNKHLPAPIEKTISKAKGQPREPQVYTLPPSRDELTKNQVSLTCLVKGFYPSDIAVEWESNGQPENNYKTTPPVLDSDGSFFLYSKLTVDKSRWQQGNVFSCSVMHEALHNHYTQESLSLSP
light: B1 light
notes: B3 variant; copies: 2 + 2
B3: GpH7-B3 A327I/GpL16-k0 (antibody, human IgG1)
heavy: not shown
light: B1 light
notes: B3 variant; copies: 2 + 2
B4: GpH7-B3 A327F/GpL16-k0 (antibody, human IgG1)
heavy: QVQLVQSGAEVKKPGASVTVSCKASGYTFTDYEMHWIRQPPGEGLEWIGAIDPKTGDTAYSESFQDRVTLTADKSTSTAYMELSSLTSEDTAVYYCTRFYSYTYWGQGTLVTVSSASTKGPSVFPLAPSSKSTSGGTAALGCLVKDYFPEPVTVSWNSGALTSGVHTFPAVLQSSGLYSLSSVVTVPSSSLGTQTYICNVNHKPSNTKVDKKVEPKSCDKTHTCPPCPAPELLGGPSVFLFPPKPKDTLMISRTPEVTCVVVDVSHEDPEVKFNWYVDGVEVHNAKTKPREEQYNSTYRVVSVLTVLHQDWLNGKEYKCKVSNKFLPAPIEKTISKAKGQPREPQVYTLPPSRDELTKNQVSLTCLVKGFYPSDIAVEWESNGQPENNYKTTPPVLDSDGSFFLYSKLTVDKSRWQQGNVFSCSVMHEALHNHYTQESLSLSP
light: B1 light
notes: B3 variant; copies: 2 + 2
B5: GpH7-B3 variant V266H/GpL16-k0 (antibody, human IgG1)
heavy: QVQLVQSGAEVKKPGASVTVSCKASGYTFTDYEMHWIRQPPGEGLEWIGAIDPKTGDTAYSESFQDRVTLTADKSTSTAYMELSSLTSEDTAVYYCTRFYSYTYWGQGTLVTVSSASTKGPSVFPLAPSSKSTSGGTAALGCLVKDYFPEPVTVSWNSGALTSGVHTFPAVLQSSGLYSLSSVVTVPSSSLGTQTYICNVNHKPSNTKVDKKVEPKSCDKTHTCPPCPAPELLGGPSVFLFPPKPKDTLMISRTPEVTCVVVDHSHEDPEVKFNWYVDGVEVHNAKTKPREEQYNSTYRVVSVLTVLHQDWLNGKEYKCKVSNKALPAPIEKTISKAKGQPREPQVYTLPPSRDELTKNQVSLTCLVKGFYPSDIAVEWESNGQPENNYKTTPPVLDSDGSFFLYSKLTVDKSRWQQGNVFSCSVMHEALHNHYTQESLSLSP
light: B1 light
notes: copies: 2 + 2
B6: GpH7-B3 variant G237K/GpL16-k0 (antibody, human IgG1)
heavy: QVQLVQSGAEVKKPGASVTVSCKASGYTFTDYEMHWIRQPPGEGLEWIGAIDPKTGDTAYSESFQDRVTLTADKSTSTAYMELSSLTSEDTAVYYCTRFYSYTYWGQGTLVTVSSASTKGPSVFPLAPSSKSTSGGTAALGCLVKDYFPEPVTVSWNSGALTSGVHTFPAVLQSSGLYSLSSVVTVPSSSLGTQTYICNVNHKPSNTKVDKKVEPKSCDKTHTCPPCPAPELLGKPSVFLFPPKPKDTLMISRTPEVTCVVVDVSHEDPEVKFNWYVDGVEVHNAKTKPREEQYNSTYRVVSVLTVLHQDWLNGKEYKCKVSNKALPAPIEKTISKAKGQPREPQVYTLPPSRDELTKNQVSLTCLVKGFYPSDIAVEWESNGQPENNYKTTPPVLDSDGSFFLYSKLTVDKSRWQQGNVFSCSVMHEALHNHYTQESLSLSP
light: B1 light
notes: copies: 2 + 2
B7: GpH7-B3 variant V266P/GpL16-k0 (antibody, human IgG1)
heavy: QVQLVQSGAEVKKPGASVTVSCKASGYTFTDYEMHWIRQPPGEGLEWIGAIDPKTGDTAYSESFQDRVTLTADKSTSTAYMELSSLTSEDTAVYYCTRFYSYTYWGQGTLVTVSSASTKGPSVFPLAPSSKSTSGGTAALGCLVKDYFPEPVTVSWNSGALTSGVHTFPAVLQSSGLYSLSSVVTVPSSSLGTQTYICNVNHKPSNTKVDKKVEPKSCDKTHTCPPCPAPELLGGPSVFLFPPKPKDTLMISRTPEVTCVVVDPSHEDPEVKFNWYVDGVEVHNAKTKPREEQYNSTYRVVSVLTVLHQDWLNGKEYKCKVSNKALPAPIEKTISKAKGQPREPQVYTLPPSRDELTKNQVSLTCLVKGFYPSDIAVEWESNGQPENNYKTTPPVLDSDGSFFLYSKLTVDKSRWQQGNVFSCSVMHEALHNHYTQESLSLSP
light: B1 light
notes: copies: 2 + 2
B8: GpH7-B3 variant V266N/GpL16-k0 (antibody, human IgG1)
heavy: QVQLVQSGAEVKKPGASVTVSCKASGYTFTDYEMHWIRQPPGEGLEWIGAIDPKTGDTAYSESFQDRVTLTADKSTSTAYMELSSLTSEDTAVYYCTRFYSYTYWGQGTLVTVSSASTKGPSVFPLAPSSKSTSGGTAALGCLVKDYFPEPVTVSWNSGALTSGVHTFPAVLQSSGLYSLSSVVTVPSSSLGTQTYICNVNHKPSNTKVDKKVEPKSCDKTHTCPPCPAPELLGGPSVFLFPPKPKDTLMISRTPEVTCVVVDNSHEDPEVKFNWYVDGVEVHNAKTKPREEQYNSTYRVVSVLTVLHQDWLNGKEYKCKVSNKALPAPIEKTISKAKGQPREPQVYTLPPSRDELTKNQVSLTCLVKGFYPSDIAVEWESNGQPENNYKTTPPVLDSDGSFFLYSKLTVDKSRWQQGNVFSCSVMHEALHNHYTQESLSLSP
light: B1 light
notes: copies: 2 + 2
B9: GpH7-B3 variant V266T/GpL16-k0 (antibody, human IgG1)
heavy: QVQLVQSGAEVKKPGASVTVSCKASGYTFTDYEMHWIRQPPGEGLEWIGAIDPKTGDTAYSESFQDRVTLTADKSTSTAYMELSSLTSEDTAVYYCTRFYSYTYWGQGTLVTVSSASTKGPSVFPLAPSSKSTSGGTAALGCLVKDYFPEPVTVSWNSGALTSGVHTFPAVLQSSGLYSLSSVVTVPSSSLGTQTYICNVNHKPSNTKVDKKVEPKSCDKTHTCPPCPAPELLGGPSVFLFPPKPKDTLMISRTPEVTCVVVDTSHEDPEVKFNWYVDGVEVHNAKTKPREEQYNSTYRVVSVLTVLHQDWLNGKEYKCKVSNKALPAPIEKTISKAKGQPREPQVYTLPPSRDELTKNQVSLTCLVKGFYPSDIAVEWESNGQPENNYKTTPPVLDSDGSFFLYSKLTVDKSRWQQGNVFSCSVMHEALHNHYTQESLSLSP
light: B1 light
notes: copies: 2 + 2
B10: GpH7-B3 variant V266Q/GpL16-k0 (antibody, human IgG1)
heavy: not shown
light: B1 light
notes: copies: 2 + 2
B11: GpH7-B3 variant V2668/GpL16-k0 (antibody, human IgG1)
heavy: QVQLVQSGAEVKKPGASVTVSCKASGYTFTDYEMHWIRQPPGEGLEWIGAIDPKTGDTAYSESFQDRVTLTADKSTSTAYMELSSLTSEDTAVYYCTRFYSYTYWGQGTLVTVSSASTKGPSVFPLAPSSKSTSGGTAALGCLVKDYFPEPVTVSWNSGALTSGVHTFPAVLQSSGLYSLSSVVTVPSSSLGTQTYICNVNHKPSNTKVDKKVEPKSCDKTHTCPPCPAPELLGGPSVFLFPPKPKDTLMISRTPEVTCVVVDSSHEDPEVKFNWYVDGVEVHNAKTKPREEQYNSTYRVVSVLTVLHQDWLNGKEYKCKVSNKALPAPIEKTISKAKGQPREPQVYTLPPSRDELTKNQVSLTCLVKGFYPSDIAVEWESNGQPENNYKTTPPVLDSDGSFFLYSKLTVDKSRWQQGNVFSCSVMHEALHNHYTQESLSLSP
light: B1 light
notes: copies: 2 + 2
B12: GpH7-B3 variant V266K/GpL16-k0 (antibody, human IgG1)
heavy: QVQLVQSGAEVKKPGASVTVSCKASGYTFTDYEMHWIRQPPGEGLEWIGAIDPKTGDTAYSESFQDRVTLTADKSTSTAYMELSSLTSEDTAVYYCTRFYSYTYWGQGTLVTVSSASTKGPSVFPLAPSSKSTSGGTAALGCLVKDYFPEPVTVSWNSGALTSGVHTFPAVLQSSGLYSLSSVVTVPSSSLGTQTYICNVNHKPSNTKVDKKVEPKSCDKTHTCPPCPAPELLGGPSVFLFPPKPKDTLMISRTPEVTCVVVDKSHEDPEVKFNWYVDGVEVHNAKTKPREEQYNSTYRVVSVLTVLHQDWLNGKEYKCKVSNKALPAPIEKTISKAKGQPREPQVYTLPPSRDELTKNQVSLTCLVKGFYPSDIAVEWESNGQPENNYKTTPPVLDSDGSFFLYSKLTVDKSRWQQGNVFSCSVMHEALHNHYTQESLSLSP
light: B1 light
notes: copies: 2 + 2
B13: GpH7-B3 variant V266Y/GpL16-k0 (antibody, human IgG1)
heavy: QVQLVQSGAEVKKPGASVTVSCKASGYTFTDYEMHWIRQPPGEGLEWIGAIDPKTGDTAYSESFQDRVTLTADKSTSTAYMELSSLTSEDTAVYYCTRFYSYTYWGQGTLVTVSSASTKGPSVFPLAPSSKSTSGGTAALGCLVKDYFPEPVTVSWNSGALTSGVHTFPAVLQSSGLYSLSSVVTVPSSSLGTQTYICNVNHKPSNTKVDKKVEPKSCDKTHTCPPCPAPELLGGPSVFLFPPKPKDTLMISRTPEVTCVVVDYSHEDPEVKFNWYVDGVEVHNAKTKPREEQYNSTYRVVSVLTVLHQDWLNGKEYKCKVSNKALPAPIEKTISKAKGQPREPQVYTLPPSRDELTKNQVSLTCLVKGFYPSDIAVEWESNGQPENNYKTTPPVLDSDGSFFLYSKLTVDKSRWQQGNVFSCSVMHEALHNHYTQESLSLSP
light: B1 light
notes: copies: 2 + 2
B14: GpH7-B3 variant V266W/GpL16-k0 (antibody, human IgG1)
heavy: not shown
light: B1 light
notes: copies: 2 + 2
B15: GpH7-B3 variant V266R/GpL16-k0 (antibody, human IgG1)
heavy: not shown
light: B1 light
notes: copies: 2 + 2

Target: T7, human FcγRIa (human, UniProt P12314 16-292, limits assumed)
T7 construct: also called FcgRIa; hFcgRIa
Assay: SPR, captured antibody;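 also: antibody captured on a sensor chip, Fcγ receptor flowed over at 25 °C, receptor binding normalized to the captured antibody amount and expressed relative to the reference antibody ×100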
T7 sequence (P12314 16-292 limits assumed): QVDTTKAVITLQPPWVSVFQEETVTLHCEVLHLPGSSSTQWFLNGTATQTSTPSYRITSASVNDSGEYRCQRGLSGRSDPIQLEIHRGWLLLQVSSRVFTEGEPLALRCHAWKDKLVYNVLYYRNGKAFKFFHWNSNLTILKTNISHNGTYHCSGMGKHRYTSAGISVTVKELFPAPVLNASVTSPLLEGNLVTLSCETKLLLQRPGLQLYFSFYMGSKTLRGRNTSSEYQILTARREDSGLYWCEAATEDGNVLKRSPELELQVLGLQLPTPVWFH

relative binding activity | Binder
64 % of GpH7-B3/GpL16-k0 | B1
93 % of GpH7-B3/GpL16-k0 | B2
98 % of GpH7-B3/GpL16-k0 | B3
95 % of GpH7-B3/GpL16-k0 | B4

Target: T1, human FcγRIIb
Assay: SPR, captured antibody;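 also: antibody captured on a sensor chip, Fcγ receptor flowed over at 25 °C, receptor binding normalized to the captured antibody amount and expressed relative to the reference antibody ×100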

relative binding activity | Binder
37 % of GpH7-B3/GpL16-k0 | B1
35 % of GpH7-B3/GpL16-k0 | B2
46 % of GpH7-B3/GpL16-k0 | B3
22 % of GpH7-B3/GpL16-k0 | B4

Target: T2, human FcγRIIa(H)
Assay: SPR, captured antibody;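 also: antibody captured on a sensor chip, Fcγ receptor flowed over at 25 °C, receptor binding normalized to the captured antibody amount and expressed relative to the reference antibody ×100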

relative binding activity | Binder
12 % of GpH7-B3/GpL16-k0 | B1
23 % of GpH7-B3/GpL16-k0 | B2
12 % of GpH7-B3/GpL16-k0 | B3
37 % of GpH7-B3/GpL16-k0 | B4

Target: T3, human FcγRIIa(R)
Assay: SPR, captured antibody;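 also: antibody captured on a sensor chip, Fcγ receptor flowed over at 25 °C, receptor binding normalized to the captured antibody amount and expressed relative to the reference antibody ×100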

relative binding activity | Binder
27 % of GpH7-B3/GpL16-k0 | B1
32 % of GpH7-B3/GpL16-k0 | B2
37 % of GpH7-B3/GpL16-k0 | B3
17 % of GpH7-B3/GpL16-k0 | B4

Target: T8, human FcγRIIIa(F) (human, UniProt P08637 17-208, limits assumed)
T8 construct: also called FcgRIIIaF; allotype F158
T8 sequence (P08637 other isoform, or with tags, fused parts or gaps limits assumed): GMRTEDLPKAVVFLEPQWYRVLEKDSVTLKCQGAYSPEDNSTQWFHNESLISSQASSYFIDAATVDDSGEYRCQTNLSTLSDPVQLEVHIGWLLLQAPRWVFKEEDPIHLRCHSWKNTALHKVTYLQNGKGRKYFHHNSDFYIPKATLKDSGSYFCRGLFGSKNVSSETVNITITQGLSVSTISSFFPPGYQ
Assay: SPR (Biacore);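 also: antibody variants captured on sensor chip, Fcγ receptor flowed over at 25 °C, bound receptor normalized to amount of captured antibody, expressed relative to reference antibody set as 100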

relative binding activity | Binder
0 % of GpH7-B3/GpL16-k0 | B5
-1 % of GpH7-B3/GpL16-k0 | B6
-1 % of GpH7-B3/GpL16-k0 | B7
5 % of GpH7-B3/GpL16-k0 | B8
12 % of GpH7-B3/GpL16-k0 | B9
3 % of GpH7-B3/GpL16-k0 | B10
3 % of GpH7-B3/GpL16-k0 | B11
-1 % of GpH7-B3/GpL16-k0 | B12
0 % of GpH7-B3/GpL16-k0 | B13
-1 % of GpH7-B3/GpL16-k0 | B14
-1 % of GpH7-B3/GpL16-k0 | B15

Target: T4, human FcγRIIb
Assay: SPR (Biacore);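 also: antibody variants captured on sensor chip, Fcγ receptor flowed over at 25 °C, bound receptor normalized to amount of captured antibody, expressed relative to reference antibody set as 100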

relative binding activity | Binder
14 % of GpH7-B3/GpL16-k0 | B5
-1 % of GpH7-B3/GpL16-k0 | B6
-3 % of GpH7-B3/GpL16-k0 | B7
40 % of GpH7-B3/GpL16-k0 | B8
52 % of GpH7-B3/GpL16-k0 | B9
34 % of GpH7-B3/GpL16-k0 | B10
18 % of GpH7-B3/GpL16-k0 | B11
-1 % of GpH7-B3/GpL16-k0 | B12
15 % of GpH7-B3/GpL16-k0 | B13
26 % of GpH7-B3/GpL16-k0 | B14
-2 % of GpH7-B3/GpL16-k0 | B15

Target: T5, human FcγRIIa(H)
Assay: SPR (Biacore);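 also: antibody variants captured on sensor chip, Fcγ receptor flowed over at 25 °C, bound receptor normalized to amount of captured antibody, expressed relative to reference antibody set as 100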

relative binding activity | Binder
2 % of GpH7-B3/GpL16-k0 | B5
0 % of GpH7-B3/GpL16-k0 | B6
-1 % of GpH7-B3/GpL16-k0 | B7
32 % of GpH7-B3/GpL16-k0 | B8
18 % of GpH7-B3/GpL16-k0 | B9
11 % of GpH7-B3/GpL16-k0 | B10
5 % of GpH7-B3/GpL16-k0 | B11
-1 % of GpH7-B3/GpL16-k0 | B12
2 % of GpH7-B3/GpL16-k0 | B13
0 % of GpH7-B3/GpL16-k0 | B14
-1 % of GpH7-B3/GpL16-k0 | B15

Target: T9, human FcγRIa (human, UniProt P12314 16-292, limits assumed)
T9 construct: also called FcgRIa; FcγRI (CD64)
Assay: SPR (Biacore);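 also: antibody variants captured on sensor chip, Fcγ receptor flowed over at 25 °C, bound receptor normalized to amount of captured antibody, expressed relative to reference antibody set as 100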
T9 sequence (P12314 16-292 limits assumed): as the sequence (P12314 16-292 limits assumed) above

relative binding activity | Binder
62 % of GpH7-B3/GpL16-k0 | B5
2 % of GpH7-B3/GpL16-k0 | B6
1 % of GpH7-B3/GpL16-k0 | B7
84 % of GpH7-B3/GpL16-k0 | B8
89 % of GpH7-B3/GpL16-k0 | B9
88 % of GpH7-B3/GpL16-k0 | B10
79 % of GpH7-B3/GpL16-k0 | B11
15 % of GpH7-B3/GpL16-k0 | B12
75 % of GpH7-B3/GpL16-k0 | B13
78 % of GpH7-B3/GpL16-k0 | B14
5 % of GpH7-B3/GpL16-k0 | B15

Target: T6, human FcγRIIa(R)
Assay: SPR (Biacore)

relative binding activity | Binder
22 % of GpH7-B3/GpL16-k0 | B5
0 % of GpH7-B3/GpL16-k0 | B6
-5 % of GpH7-B3/GpL16-k0 | B7
58 % of GpH7-B3/GpL16-k0 | B8
66 % of GpH7-B3/GpL16-k0 | B9
47 % of GpH7-B3/GpL16-k0 | B10
26 % of GpH7-B3/GpL16-k0 | B11
0 % of GpH7-B3/GpL16-k0 | B12
18 % of GpH7-B3/GpL16-k0 | B13
37 % of GpH7-B3/GpL16-k0 | B14
-6 % of GpH7-B3/GpL16-k0 | B15
